The labels stand for the following.
B1: TPR t1 (parent)
chain: GACCAAUCUGCCCUCAGAGCUCGAGAACAUCUUCGGAUGCAGAGGAGGCAGGCUUCGGUGGCGCGAUAGCGCCAACGUCCUCAACCUCCAAUGCAUCCCACCACAUGAUGAUGCCUGAAGAGCCUUGGUUUUUUG

Variants of B1 are the subject of the data set. In words: polymerase ribozyme fitness, log enrichment relative to wild type (log ratio); higher = more active; in vitro selection for triplet polymerase activity. In a few lines: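 One round of in vitro selection, in triplicate, was applied to PCR-built, transcribed mutant libraries of each subunit of a heterodimeric triplet polymerase ribozyme. The steps were annealing with a biotinylated primer, partner subunit and triplets, incubation frozen at −7 °C, gel excision of extended constructs, streptavidin-bead capture and RT-PCR. Fitness is the logarithm, base 2, of genotype enrichment over wild-type enrichment from inverse-variance-weighted replicate averages of Illumina-sequenced inputs and outputs, keeping genotypes with ≥10 input reads and ≥1 read per output.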
As for C40A G52A C73U C104U U126A, the “polymerase ribozyme fitness (log ratio)” value is -3.9.
Next, C40A C73U: -1.17; G39A C56G C94G A111C C114U U130G: -4.67.
For G39A G51U C79U C101U, the “polymerase ribozyme fitness (log ratio)” value was -5.14.
Next, G39C G48U C62U: -1.74.
Consider G39A A118G A121U, for which the “polymerase ribozyme fitness (log ratio)” value is 1.46.
Next, G39A A90G: 0.17; U38G G52A G63C: -2.23; C40A G71C C101A U131C: -3.67.
Next, C40A A118U G120U: -1.37.
For C40A G60U A91G G135C the value was -4.18.
G39U U106C U129C: the “polymerase ribozyme fitness (log ratio)” value is -1.88.
Next, G39A C72U C99U G120A U126C: -3.09; U38G G47U: -3.26.
For C40A G61C A66U G128U U129A U133G the value was -6; for U38G G52C U55G A74U, -2.31.
For C40A G45U the value was -2.77; for G39A U81A C88U, -0.679; for G39A C124A, 1.38.
For G39A C124G, the “polymerase ribozyme fitness (log ratio)” value is 1.36.
For the variant G39U U54A, the “polymerase ribozyme fitness (log ratio)” value was -1.76.
For G39U C49A the value was -0.99; for G39U U59A C98U A121G, 0.547; for C40A C73A U81C C104U, -0.977.
For G39C G135U, the “polymerase ribozyme fitness (log ratio)” value was -0.712.
Next, G39A C56U G107U A111U U129A: -5.29; C40A G69C U130C: -2.11.
Consider G39U G47U, for which the “polymerase ribozyme fitness (log ratio)” value is -2.97.
For G39A C40A the value was -3.25.
In the case of C40A A50U C88U U96C G120U, the “polymerase ribozyme fitness (log ratio)” value is -4.53.
Turning to G39C A43U A90G C114U U125A, the “polymerase ribozyme fitness (log ratio)” value is -2.64.
For C40A C82G the value was -1.95; for G39A C97A G120C, -6.66.
Next, G39U C73U G77A: -1.39.
Take G39U C49G A118U: the “polymerase ribozyme fitness (log ratio)” value is -0.724.
Next, G39C C62A: -0.902; G39U C79U C88A G110A G117U: -6.66.
For G39U G61U G110U the value was -2; for G39U C115U U131A, -2.02.
For C40A G42A G48U G58A A90G the value was -2.65.
In the case of U38G G47U G120A U130C, the “polymerase ribozyme fitness (log ratio)” value was -1.92.
For G39U C49A G71U G127A the value was -2.56.
Next, G39C C114A: -1.94; G39C U55A C56A U112C: -0.17.
For G39C U78A C94A C123A C124A G128A the value was -0.0279; for C40A G57U G122U, -2.54; for G39A G69A A121U G128U, -3.24.
For G39C A50C C56G G71A G77A A90U U96A, the “polymerase ribozyme fitness (log ratio)” value is -4.32.
For C40A C73U U78A the value was -0.967.
As to C40A G44A U92G A95U C115U, the “polymerase ribozyme fitness (log ratio)” value was -6.45.
For G39C G65U the value was -6.02; for G39U G107U G117U, -6.23; for G39U G58A A121U, 1.6.
For G39A C72G A105G the value was -2.86; for G39U A74G, -1.85.
For G39C A43G C124U the value was -0.831.
For G39U A90G C102A G117U A121C, the “polymerase ribozyme fitness (log ratio)” value is -5.4.
Next, G39U U55A G71A C94G C102A G113U: -5.82.
Next, G39C G77C C115U G128A: -4.5; C40A G48A C70U: -2.07.
Turning to G39U G63A G93U, the “polymerase ribozyme fitness (log ratio)” value was -3.17.
Next, U38G U78A: -0.0381; G39A G69C: -0.611; G39A G69U C99A: -4.04.
As for G39A G47U, the “polymerase ribozyme fitness (log ratio)” value was -2.07.
For G39U A43G the value was -1.75; for G39C U55G A119U, -0.691; for G39A C64U C98G A103C A111G, -7.64.
As for G39U C97A, the “polymerase ribozyme fitness (log ratio)” value is -5.98.
For G39U C123A the value was -0.855.
For G39A A43U the value was -1.78; for C40A A111C, -1.49.
Next, U38G U55G: 0.414; C40A G69C C85G G110U U112C: -6.63; C40A C53A G57U: -0.732.
Take C40A C56G: the “polymerase ribozyme fitness (log ratio)” value is -2.58.
As for C40A G44U G45A, the “polymerase ribozyme fitness (log ratio)” value is -3.66.
For G39A C56A G120U the value was -0.286; for C40A G71A, -2.
As to C40A G71U, the “polymerase ribozyme fitness (log ratio)” value was -1.52.
Next, G39A U96C: -0.886.
For G39U G117C the value was -4.79; for C40A C86U G110U U112C, -3.84; for G39A C73A G117A A119G, 1.02.
For G39C G47C the value was -3.08; for G39U C88U C94U U106G A121C, -0.0673; for G39A A68G C115G U130A, -6.03.
For the variant G39U G61U C73U U106A, the “polymerase ribozyme fitness (log ratio)” value is -1.81.
On to G39C C72U U129G, for which the “polymerase ribozyme fitness (log ratio)” value was -2.2.
Next, C40A A46G U55A C99U G120A: -4.32.
For G39U G113C the value was -2.84; for G39U G113U, -3.59.
For C40A U87G the value was -1.04; for G39A C56A U130A U131C, -1.5; for C40A A43G C56G G135U, -4.41.
On to G39U U54G C73G, for which the “polymerase ribozyme fitness (log ratio)” value was -4.41.
For G39C U116C the value was -2.01.
For G39U A66U A119G the value was -0.493; for G39U A41G G45A A119G U132G G135U, -2.12.
Next, G39U C62A: -2.16.
As for G39A A50C C73A C79A C82G, the “polymerase ribozyme fitness (log ratio)” value is -0.859.
For G39U G45U C72A the value was -2.22.
For U38G G52U G135C the value was -3.58.
For the variant G39A G61A C89A G120C, the “polymerase ribozyme fitness (log ratio)” value is -1.19.
Next, G39U G42A G57U G117A C124G: -3.25; G39A C56A: -0.909; G39U C79U: -0.704.
As for C40A, the “polymerase ribozyme fitness (log ratio)” value was -1.28.
Next, G39U G52A U55C C56A C80U: -1.08.
Next, G39U A90G C98U C102A: -4.8.
For G39A G71A C86A A100C the value was -4; for G39U U109G, -5.73; for C40A A43U C82U, -3.09.
As for G39U G42C C94U U106A U112A, the “polymerase ribozyme fitness (log ratio)” value is -0.723.
Next, G39C C72U G93U A121U: 0.127; G39U G65A: -6.81.
For C40A A43C the value was -3.2; for G39A G135U, -1.41.
Next, C40A C85G C88U U129G: -3.87.
In the case of G39U C40G, the “polymerase ribozyme fitness (log ratio)” value is -3.47.
For G39U C64U A91C C123A the value was -1.57.
Turning to G39A G110C, the “polymerase ribozyme fitness (log ratio)” value was -4.65.
Next, G39C C56A: -0.765.
For C40A G45U G71C U92A the value was -6.28; for G39A C53U G61C A84U G127C, -2.2; for G39A G48A A100C G120A, -1.06.
Consider G39U A103C C114U A119U G120A U130A, for which the “polymerase ribozyme fitness (log ratio)” value is -4.34.
Next, G39A G42A A46G G58A: -2.47; G39A A84C U106A: -0.784.
Next, G39U C64U A84C G122A C124A: 0.97; G39A C62A C89G C101U: -5.16.
For C40A U92G C123G the value was -1.39.
For the variant G39U A41U A43U G60U C82A C114A, the “polymerase ribozyme fitness (log ratio)” value is -4.19.
Consider C40A A46G U132A, for which the “polymerase ribozyme fitness (log ratio)” value was -1.49.
Next, G39U C123G U126C: -0.255.
For C40A C72U U92A C115A the value was -1.91; for G39A G60A C86U U116A, -3.99; for G39C G93A, -2.3.
Next, U38G G60U: -0.261; U38G G135U: -2.04; G39C G69A G127U: -3.35.
Turning to G39C C70U C101A, the “polymerase ribozyme fitness (log ratio)” value is -2.67.
With G39A G58A, the “polymerase ribozyme fitness (log ratio)” value is -1.7.
Next, G39U G60A: 0.0157; G39U G60U: -0.635.
For U38G U106A the value was -1.09.
For C40A G69C the value was -2.42; for C40A C114A, -3.51.
For G39C G44U, the “polymerase ribozyme fitness (log ratio)” value is -2.29.
For G39U G120U the value was -0.816; for G39U G63A A100U G120U, -2.94; for G39A G57U G71U U78G C123A, -0.79.
Next, G39U G61A C72G A103U: -5.55.
Next, G39C A66U A75G C88G C123U: -3.46; G39U G57A C80A: -2.91; G39A G57A G60C C101A G113C: -6.12.
As for G39A C70G U112G, the “polymerase ribozyme fitness (log ratio)” value was -4.63.
C40A C73U G128U: the “polymerase ribozyme fitness (log ratio)” value was -3.11.
For G39C C53A U54G G120U the value was 0.139.
For C40A C72A the value was -0.912; for G39A C115A, -0.711; for G39U C76U C79G, -1.98.
For C40A U109C C115U the value was -6.69; for G39U C85U, -0.997.
For G39U C85G, the “polymerase ribozyme fitness (log ratio)” value was -2.87.
Next, G39U G44C C72U: -1.9; C40A G127C: -2.27.

For the origin of these results see the RNAGym collection of RNA variant scans (doi:10.1073/pnas.2313332121).
